From article PMC8726653, “TNF-induced necroptosis initiates early autophagy events via RIPK3-dependent AMPK activation, but inhibits late autophagy” (Autophagy, 2021) come the findings set out here.

The target of this test is T1, His-AMPK [His-HsPRKAA1 (11–559) + HsPRKAB2 (1–272) + HsPRKAG1 (1–331)] (human, UniProt Q13131 11-559; O43741 1-272; P54619 1-331).
T1 construct: also called DU32489; source: obtained: MRC PPU Reagents and Services, University of Dundee (DU32489); copies: + +
The experiment in a line: pull-down; 4 µg GST-MmRIPK3 (or GST) on glutathione-Sepharose beads incubated with 1 µg His-AMPK overnight at 4°C in 0.5% Nonidet P-40 buffer (50 mM Tris pH 8.0, 100 mM NaCl, 6 mM EDTA, 6 mM EGTA, 1 mM DTT); blot for AMPK and GST. To be noted: both partners purified.

T1 sequence (Q13131 11-559, chain 1 of 3): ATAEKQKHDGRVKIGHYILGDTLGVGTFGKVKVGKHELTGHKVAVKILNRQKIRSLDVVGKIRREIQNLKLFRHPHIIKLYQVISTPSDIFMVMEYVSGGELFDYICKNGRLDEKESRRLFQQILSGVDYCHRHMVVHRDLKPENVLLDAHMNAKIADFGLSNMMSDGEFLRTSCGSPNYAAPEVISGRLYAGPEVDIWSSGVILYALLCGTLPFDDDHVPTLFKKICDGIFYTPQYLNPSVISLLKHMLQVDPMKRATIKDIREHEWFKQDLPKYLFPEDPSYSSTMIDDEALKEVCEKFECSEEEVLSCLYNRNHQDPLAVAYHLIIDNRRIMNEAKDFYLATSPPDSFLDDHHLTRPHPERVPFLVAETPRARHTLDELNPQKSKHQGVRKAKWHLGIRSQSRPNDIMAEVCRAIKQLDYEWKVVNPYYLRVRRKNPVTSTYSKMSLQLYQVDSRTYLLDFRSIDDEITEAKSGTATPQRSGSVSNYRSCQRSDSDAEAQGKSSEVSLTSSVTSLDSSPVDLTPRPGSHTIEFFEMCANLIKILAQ
T1 sequence (O43741 whole entry, chain 2 of 3): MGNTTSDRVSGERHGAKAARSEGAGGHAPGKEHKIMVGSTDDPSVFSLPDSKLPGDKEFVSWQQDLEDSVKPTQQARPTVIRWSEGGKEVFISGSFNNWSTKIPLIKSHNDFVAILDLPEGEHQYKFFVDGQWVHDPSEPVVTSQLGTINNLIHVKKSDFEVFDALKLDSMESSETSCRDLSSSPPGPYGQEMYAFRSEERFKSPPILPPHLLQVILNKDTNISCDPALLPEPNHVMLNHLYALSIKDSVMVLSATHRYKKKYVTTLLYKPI
T1 sequence (P54619 whole entry, chain 3 of 3): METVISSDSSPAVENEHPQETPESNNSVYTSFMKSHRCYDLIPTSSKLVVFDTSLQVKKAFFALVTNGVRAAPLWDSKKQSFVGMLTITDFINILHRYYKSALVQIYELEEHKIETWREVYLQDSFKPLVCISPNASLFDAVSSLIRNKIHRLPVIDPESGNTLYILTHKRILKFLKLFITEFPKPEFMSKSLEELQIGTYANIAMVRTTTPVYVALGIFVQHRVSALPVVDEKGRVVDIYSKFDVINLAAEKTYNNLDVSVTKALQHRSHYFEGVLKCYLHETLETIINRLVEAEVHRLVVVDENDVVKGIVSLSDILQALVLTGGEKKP

B1: GST-MmRIPK3 (enzyme, mouse, UniProt Q9QZL0 1-486, looked up)
chain: MSSVKLWPTGASAVPLVSREELKKLEFVGKGGFGVVFRAHHRTWNHDVAVKIVNSKKISWEVKAMVNLRNENVLLLLGVTEDLQWDFVSGQALVTRFMENGSLAGLLQPECPRPWPLLCRLLQEVVLGMCYLHSLNPPLLHRDLKPSNILLDPELHAKLADFGLSTFQGGSQSGSGSGSGSRDSGGTLAYLDPELLFDVNLKASKASDVYSFGILVWAVLAGREAELVDKTSLIRETVCDRQSRPPLTELPPGSPETPGLEKLKELMIHCWGSQSENRPSFQDCEPKTNEVYNLVKDKVDAAVSEVKHYLSQHRSSGRNLSAREPSQRGTEMDCPRETMVSKMLDRLHLEEPSGPVPGKCPERQAQDTSVGPATPARTSSDPVAGTPQIPHTLPFRGTTPGPVFTETPGPHPQRNQGDGRHGTPWYPWTPPNPMTGPPALVFNNCSEVQIGNYNSLVAPPRTTASSSAKYDQAQFGRGRGWQPFHK
notes: cDNA amplified from pBOB-FLAG-MmRIPK3 and inserted into pGEX-5X-3; also called recombinant RIPK3; source: E. coli BL21 (DE3), purified on glutathione sepharose 4B beads
As to B1, the binding result was “binds”.
